Reference: the supplement of paper PMC10899765

Columns and labels:
Conditions in all cases: 20 nM; 72 h
[1] = tested on: MCF10A; test: 5+ nucleoli phenotype percent effect (relative to siNT 0% and siKIF11 100%); higher = more cells with five or more nucleoli
Description: (§1)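 After 72 h, cells were fixed and stained with Hoechst and anti-fibrillarin, and nucleoli per nucleus were counted with CellProfiler. Values are plate-adjusted percent effect for the one-nucleolus and 5+ nucleoli phenotypes, normalised to siNT (0%) and to the positive controls siNOL11 or siKIF11 (100%), as the mean of biological triplicates. Percent viability is the nuclei count relative to siNT.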

[2] = tested on: MCF10A; test: one-nucleolus phenotype percent effect (relative to siNT 0% and siNOL11 100%); higher = more cells with one nucleolus (ribosome biogenesis inhibition)
Description: as §1

[3] = tested on: MCF10A; test: percent viability (nuclei count relative to siNT); higher = more viable cells
Description: as §1

Sequence	5+ nucleoli phenotype percent effect [1]	one-nucleolus phenotype percent effect [2]	percent viability [3]
AGGCCUCUGUGACGUCACGGUGU [hsa-miR-4757-5p]	66.8%	-11.7%	62.5%
CGGAUGAGCAAAGAAAGUGGUU [hsa-miR-1255b-5p]	45.2%	-12.5%	64.1%
UGCGGGGACAGGCCAGGGCAUC [hsa-miR-4749-5p]	-24.9%	50.5%	21.9%
CUCUAGAGGGAAGCGCUUUCUG [hsa-miR-523-5p]	-3.36%	5.46%	54.8%
UCUUACUCCCUCAGGCACUG [hsa-miR-550b-3p]	-5.7%	1.54%	31%
AAAAGCUGGGCUGAGAGGCG [hsa-miR-4429]	-19.2%	24.9%	38.6%
UUCAGAUCCCAGCGGUGCCUCU [hsa-miR-5100]	-27.6%	14.1%	39.2%
GGGGAGGUGUGCAGGGCUGG [hsa-miR-6799-5p]	37%	-29.7%	93.2%
GAGGGUCUUGGGAGGGAUGUGAC [hsa-miR-1182]	44.5%	-20.9%	104%
AAUGUUGGAAUCCUCGCUAGAG [hsa-miR-4781-3p]	12.4%	-0.0524%	34.3%
AACUGAACCAGGAGUGAGCUUCG [hsa-miR-4724-5p]	-1.37%	6.7%	77.9%
AGGGAGGGACGGGGGCUGUGC [hsa-miR-149-3p]	-16.6%	42.9%	15.1%
UCCAGUGCCCUCCUCUCC [hsa-miR-1825]	-2.13%	-8.72%	70.3%
UCCUUCUGCUCCGUCCCCCAG [hsa-miR-1237-3p]	6.7%	-0.823%	52.7%
AGAGCUCACAGCUGUCCUUCUCUA [hsa-miR-3670]	-9.38%	17.6%	25.7%
CUUCUGCCUGCAUUCUACUCCCAG [hsa-miR-6738-3p]	-13.9%	12.5%	51.1%
UAGUCCCUUCCUUGAAGCGGUC [hsa-miR-2114-5p]	-46%	43.8%	25.2%
CUAUACAAUCUAUUGCCUUCCC [hsa-let-7f-1-3p]	-25%	-6.49%	39.2%
GCGGAAGGCGGAGCGGCGGA [hsa-miR-6125]	25.5%	-24.1%	155%
AGAUUGUUUCUUUUGCCGUGCA [hsa-miR-4445-5p]	-21.9%	34.7%	19.2%

Sequence	5+ nucleoli phenotype percent effect [1]	one-nucleolus phenotype percent effect [2]	percent viability [3]
UCAAAACUGAGGGGCAUUUUCU [hsa-miR-1323]	27.8%	-19.4%	55.9%
AACUCCAAACACUCAAAACUCA [hsa-miR-3145-5p]	43.6%	-24.6%	119%
UCCCCUUCUGCAGGCCUGCUGG [hsa-miR-3127-3p]	34.9%	-24.5%	144%
CAGAGUGACAAGCUGGUUAAAG [hsa-miR-5586-3p]	27.8%	-14.6%	98.4%
UUUUGUGUCUCCCAUUCCCCAG [hsa-miR-5010-3p]	-18.5%	-9.03%	57.3%
CCUGACACCCCAUCUGCCCUCA [hsa-miR-6730-3p]	-26.1%	26.8%	61.8%
AGAAGUAAUUGCGGUUUUGCCA [hsa-miR-548ax]	-15.7%	4.38%	53.4%
UCUGGGAGGUUGUAGCAGUGGAA [hsa-miR-3192]	-19.2%	62.5%	14.6%
CUGUGGGCUCAGCGCGUGGGG [hsa-miR-4322]	-30.6%	28.2%	31.3%
UUGCUCUGCUCCCCCGCCCCCAG [hsa-miR-6805-3p]	43.1%	-15.8%	36.2%
CCCCGGGGAGCCCGGCG [hsa-miR-4532]	45.2%	-24.8%	148%
CUCAUUUAAGUAGUCUGAUGCC [hsa-miR-5696]	-2.38%	-11.5%	125%
AGCUGAGCUCCAUGGACGUGCAGU [hsa-miR-4663]	16.3%	-21.4%	67%
UCAGUUCCAGGCCAACCAGGCU [hsa-miR-584-3p]	3.58%	19.6%	43.9%
AUGGCCAGAGCUCACACAGAGG [hsa-miR-4435]	40.9%	-11.4%	68%
CCAGGAGGCGGAGGAGGUGGAG [hsa-miR-4459]	-0.862%	9.39%	64.6%
AGCAUACACCUGUAGUCCUAGA [hsa-miR-5689]	2.26%	0.904%	66.7%
CCCGGACAGGCGUUCGUGCGACGU [hsa-miR-3687]	26.3%	-20.6%	86.1%
CACUGCAUUCCUGCUUGGCCCAG [hsa-miR-6807-3p]	6.87%	-9.99%	48.2%
ACCCCACUCCUGGUACC [hsa-miR-4286]	39.7%	-13.8%	48.7%

Sequence	5+ nucleoli phenotype percent effect [1]	one-nucleolus phenotype percent effect [2]	percent viability [3]
UAGGGGGCGGCUUGUGGAGUGU [hsa-miR-6805-5p]	0.0052%	18.2%	27%
UGGUUCUCUUGUGGCUCAAGCGU [hsa-miR-597-3p]	-23%	44.1%	22.4%
CCCUGUGCCCGGCCCACUUCUG [hsa-miR-1914-5p]	1.43%	-13.8%	90.2%
UCUAGAAAUGCAUGACCCACC [hsa-miR-6508-5p]	17.2%	-15.2%	112%
UGUUCAUUGGAACCCUGCGCAG [hsa-miR-6853-3p]	29%	-28.7%	79.8%
AUAGCAAUUGCUCUUUUGGAA [hsa-miR-4766-3p]	-28.9%	19.4%	38.1%
CUUGCCAUCCUGGUCCACUGCAU [hsa-miR-4776-3p]	-38.5%	25.4%	20.6%
UGUAGUUGUAUUGUAUUGCCAC [hsa-miR-4703-3p]	-29.5%	6.74%	40.8%
AACACUGGCCUUGCUAUCCCCA [hsa-miR-6757-3p]	-35%	30.1%	52.1%
UCAGUGCACUACAGAACUUUGU [hsa-miR-148a-3p]	68.2%	-16.7%	88.9%
CUCCUACAUAUUAGCAUUAACA [hsa-miR-155-3p]	6.71%	-5.11%	119%
GGAGGCGCAGGCUCGGAAAGGCG [hsa-miR-3197]	13.6%	-2.74%	41.9%
AUAGUGGGAAGCUGGCAGAUUC [hsa-miR-4727-3p]	-30.8%	52.3%	16.6%
CACCCGUAGAACCGACCUUGCG [hsa-miR-99b-5p]	-9.05%	21.8%	62.9%
AGCCCCUGCCCACCGCACACUG [hsa-miR-210-5p]	53%	-21%	101%
CCUAGACACCUCCAGUUC [hsa-miR-4305]	-1.06%	-1.35%	39.4%
CUCCCCUCUCUUUCCUGUUCAG [hsa-miR-6826-3p]	-9.68%	0.6%	52.3%
GUUCAAAUCCAGAUCUAUAAC [hsa-miR-607]	34.2%	-23.2%	111%
UGACCGAUUUCUCCUGGUGUUC [hsa-miR-29c-5p]	-8.5%	21.1%	105%
